This passage reports EC50, intracellular cAMP (HTRF) assay in cAMP Hunter CHO cells expressing GLP-1R and EC50, CRE luciferase reporter assay in HEK293-GLP-1R-CRE cells results from publication PMC7321126, “Recombinant Expression and Stapling of a Novel Long-Acting GLP-1R Peptide Agonist” (Molecules, 2020).

Assay [1] deals with GLP-1R on cAMP Hunter CHO cells (UniProt P43220).
In assay [2] the target is human GLP-1R on HEK293-GLP-1R-CRE cells (human) (UniProt P43220).
Chain of human GLP-1R on HEK293-GLP-1R-CRE cells (human) (P43220 24-463): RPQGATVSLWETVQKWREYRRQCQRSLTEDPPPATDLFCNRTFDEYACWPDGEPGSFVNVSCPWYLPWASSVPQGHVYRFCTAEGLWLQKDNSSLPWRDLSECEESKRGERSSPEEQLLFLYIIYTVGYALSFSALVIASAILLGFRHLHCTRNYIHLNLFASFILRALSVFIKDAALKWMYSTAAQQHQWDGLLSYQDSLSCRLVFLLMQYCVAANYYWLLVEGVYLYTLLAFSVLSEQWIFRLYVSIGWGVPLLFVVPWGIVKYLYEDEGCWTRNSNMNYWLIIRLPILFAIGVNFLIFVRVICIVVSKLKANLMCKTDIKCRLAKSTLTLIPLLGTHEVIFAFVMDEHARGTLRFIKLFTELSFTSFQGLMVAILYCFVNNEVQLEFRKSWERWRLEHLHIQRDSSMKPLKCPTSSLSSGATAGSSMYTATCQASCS

Chain of GLP-1R on cAMP Hunter CHO cells (P43220 24-463): as above

As to Semaglutide (peptide), in assay [1], the EC50, intracellular cAMP (HTRF) assay in cAMP Hunter CHO cells expressing GLP-1R is 0.21 nM. In assay [2], the EC50, CRE luciferase reporter assay in HEK293-GLP-1R-CRE cells was 0.024 nM.

Consider “exenatide (Ex-4) (from UniProt P26349 48-87) (peptide)”, for which the EC50, intracellular cAMP (HTRF) assay in cAMP Hunter CHO cells expressing GLP-1R in assay [1] was 0.111 nM. For the same substance, the EC50, CRE luciferase reporter assay in HEK293-GLP-1R-CRE cells in assay [2] was found to be 0.037 nM.
